Source: patent publication US20240417469A1

How the values were obtained:
[1] = target: recombinant CD3D&E protein (human CD3-his tag) (human) (UniProt P04234); experiment: SPR Biacore, Ab captured on Protein A
[2] = target: human CD3 on cells (human PBMC; Jurkat TCR/CD3 NFAT reporter cells) (human) (UniProt P07766); experiment: FACS on human PBMC, PE anti-human IgG Fc secondary, geometric mean fluorescence
Sequence of human CD3 on cells (human PBMC; Jurkat TCR/CD3 NFAT reporter cells) (human) (P07766 23-207, chain 1 of 3): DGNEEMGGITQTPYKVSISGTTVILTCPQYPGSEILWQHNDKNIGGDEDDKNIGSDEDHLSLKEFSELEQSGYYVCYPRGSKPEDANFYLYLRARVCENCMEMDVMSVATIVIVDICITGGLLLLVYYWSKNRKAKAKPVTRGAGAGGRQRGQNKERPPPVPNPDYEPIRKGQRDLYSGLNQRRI
Sequence of human CD3 on cells (human PBMC; Jurkat TCR/CD3 NFAT reporter cells) (human) (P04234 22-171, chain 2 of 3, further chain): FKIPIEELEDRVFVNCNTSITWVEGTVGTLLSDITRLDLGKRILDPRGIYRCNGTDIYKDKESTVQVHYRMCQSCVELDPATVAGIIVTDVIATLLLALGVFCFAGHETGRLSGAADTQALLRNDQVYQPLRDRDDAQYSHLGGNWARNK
Sequence of human CD3 on cells (human PBMC; Jurkat TCR/CD3 NFAT reporter cells) (human) (P09693 23-182, chain 3 of 3, further chain): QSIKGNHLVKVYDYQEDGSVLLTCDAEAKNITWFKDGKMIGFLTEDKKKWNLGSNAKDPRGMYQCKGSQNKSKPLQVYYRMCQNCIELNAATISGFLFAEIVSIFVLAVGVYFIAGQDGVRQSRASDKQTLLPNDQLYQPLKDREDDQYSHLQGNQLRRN

Sequence of recombinant CD3D&E protein (human CD3-his tag) (human) (P04234 22-105 limits assumed, chain 1 of 2): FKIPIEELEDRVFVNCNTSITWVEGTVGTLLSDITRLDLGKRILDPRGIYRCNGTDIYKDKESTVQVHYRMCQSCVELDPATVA
Sequence of recombinant CD3D&E protein (human CD3-his tag) (human) (P07766 23-126 limits assumed, chain 2 of 2, further chain): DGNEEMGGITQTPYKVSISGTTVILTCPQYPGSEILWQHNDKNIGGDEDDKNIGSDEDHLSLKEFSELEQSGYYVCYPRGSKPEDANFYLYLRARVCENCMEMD

OKT3 (antibody)
Kd [1]: 3.7 nM
koff [1]: 0.00272 s⁻¹
kon [1]: 735000 M⁻¹ s⁻¹
EC50 (read off the curve) [2]: 0.04 nM
